Consider one molecule from patent US20160151410A1, “CLEARANCE OF BIOACTIVE LIPIDS FROM MEMBRANE STRUCTURES BY CYCLODEXTRINS” (The Trustees of Columbia University in the City of New York, priority 2013, published 2016).

Format in all cases: biochemical
Series [1] in a line: Phospholipase A activity assay. The settings on record: amount of enzyme used for LDL digestion. On the procedure: (§1) Triglyceride hydrolase activity of CEase and LIPC was determined with DMPTB as substrate according to Choi et al. (Choi et al., 2003) Phospholipase A activity of CEase and LIPC was assayed similarly as triglyceride hydrolase activity but with 1.5 mM of 1,2-bis(heptanoylthio)glycerophosphocholine as substrate and assay buffer containing 10 mM of CaCl2 instead of 1 mM of EDTA.

A short description of series [2]: Triglyceride hydrolase activity assay. The settings on record: amount of enzyme used for LDL digestion. On the procedure: as §1
The subject of series [3] is classical pathway of complement system. As to the kind of experiment: Complement activation (C3 fixation) by LIPC- or CEase-digested immobilized LDL with human serum. The settings on record: 0-50 μg/ml LIPC; 0-2 hours. On the procedure: 96-well MaxiSorp plates were coated with fresh human LDL (A, D, E), VLDL (B), or NaOH-hydrolyzed LDL (C). After blocking with BSA, the plates, except (C), were digested with LIPC. To test complement activation, the plates were incubated with diluted native human serum (N), C1q-depleted human serum (Cd), factor B-depleted human serum (Bd), or human serum containing Mg-EGTA (ME). C3 fixation on the plate was detected with a monoclonal anti-C3d antibody followed by HRP-conjugated secondary antibody. Specific conditions for LIPC digestion and HRP-catalyzed color development of each experiment were outlined as following: LIPC was used at 10 μg/ml for (A, B, E), 0-50 μg/ml for (D), and no LIPC for (C). LIPC degradation was 1 hour for (D), 2 hours for (A, B), and 0-2 hours for (E). Color development was 15 minutes for (A, B, C, E) and 10 minutes for (D). For NaOH hydrolysis of LDL, 1.35 mg/ml of LDL was incubated in 0.15M NaOH solution at 25° C. for up to 60 minutes. Aliquots were taken out and neutralized with 0.15M HCl at 1, 10, 20, 60 minutes.
LIPC and CEase, both having 8 μUnits of phospholipase A1 activity but having 3 μUnits and 8125 μUnits of triglyceride hydrolase activity respectively, were used for 2 hours digestion of immobilized LDL. Complement activation with diluted native human serum is then determined as in FIG. 1. The HRP-catalyzed color development was 15 minutes.
Human LDL coating and 1 hour (C) or 2 hours (A, B) LIPC digestion was performed as described in FIG. 1. (A) For complement activation, 0-50 μM of phosphocholine was added into diluted native human serum. […]
After thorough washing of the plate, C3 fixation and final membrane attack complex formation on the plate were determined with anti-human C3d antibody and anti-human C5b-9 antibody, in combination with HRP-conjugated secondary antibody, respectively. […] The final peroxidase activity was monitored at 450 nm with 3,3′,5,5′-tetramethyl-benzidine and hydrogen peroxide as substrates after 10 or 15 minutes reaction at room temperature.

B1: LIPC: recombinant human LIPC (hepatic lipase) (protein, UniProt P11150 23-499, looked up)
Hepatic triacylglycerol lipase: LGQSLKPEPFGRRAQAVETNKTLHEMKTRFLLFGETNQGCQIRINHPDTLQECGFNSSLPLVMIIHGWSVDGVLENWIWQMVAALKSQPAQPVNVGLVDWITLAHDHYTIAVRNTRLVGKEVAALLRWLEESVQLSRSHVHLIGYSLGAHVSGFAGSSIGGTHKIGRITGLDAAGPLFEGSAPSNRLSPDDANFVDAIHTFTREHMGLSVGIKQPIGHYDFYPNGGSFQPGCHFLELYRHIAQHGFNAITQTIKCSHERSVHLFIDSLLHAGTQSMAYPCGDMNSFSQGLCLSCKKGRCNTLGYHVRQEPRSKSKRLFLVTRAQSPFKVYHYQFKIQFINQTETPIQTTFTMSLLGTKEKMQKIPITLGKGIASNKTYSFLITLDVDIGELIMIKFKWENSAVWANVWDTVQTIIPWSTGPRHSGLVLKTIRVKAGETQQRMTFCSENTDDLLLRPTQEKIFVKCEIKSKTSKRKIR
As for B1, in series [1], the PLA1 activity came out at 8 μUnits. The TGhydrolase activity in series [2] stood at 3 μUnits. In addition, the “complement activation, dependence on LIPC degradation” value in series [3] is “both dose and time-dependent”.
